# Experimental data published in US20190111122A1 (ENGINEERED ANTIGENS, published 2019).
# B1: TbpB N-lobe fused to HpuA (N. meningitidis) (other)
# chain: CLGGGGSFDLDSVETVQDMHSKPKYEDEKSQPESQQDVSENSGAAYGFAVKLPRRNAHFNPKYKEKHKPLGSMDWKKLQRGEPNSFSERDELEKKRGSSELIESKWEDGQSRVVGYTNFTYVRSGYVYLNKNNIDIKNNIVLFGPDGYLYYKGKEPSKELPSEKITYKGTWDYVTDAMEKQRFEGLGSAAGGDKSGALSALEEGVLRNQAEASSGHTDFGMTSEFEVDFSDKTIKGTLYRNNRITQNNSENKQIKTTRYTIQATLHGNRFKGKALAADKGATNGSHPFISDSDSLEGGFYGPKGEELAGKFLSNDNKVAAVFGAKQKDKKDAGGGVAEPHVPVSIPTATPLPTGEVKLSDDNSKIENINTADTGSTSGISIQQRKYEVESYGIKREEKAFIFQTPGGAQYALSSYADPITVSYSSPDFKIPDRHAGQRLADGSRIFICCSESGATSYAEITKQDYMKFGAWIGPNGEIDLFAGGFPVGKTPKPKYSWGNTEPETKGKGKITYQVWGIRVRNRQFVTSSYTPPKSGSYYGTLANTPVLSFITANFNSNKLAGEIRGNSDYGPSVKIENATINSLSFSGTATSGGKTGNLEGKFFGKFNGYRDTETSIGGKITFDGDRSLDTVFGGVSYKKELENNTDTSTTHLTK
# notes: also called Nlobe-HpuA
# Biological target: T1, biotinylated human transferrin (human, UniProt P02787 20-698, biotinylated (sites not given))
# T1 construct: Used at 0.05-0.1 mg/mL as the labelling reagent; detected with R-phycoerythrin-conjugated streptavidin; also called Sigma-aldrich T3915-5MG
# Test: flow cytometry, E. coli C43 (DE3) cells expressing Nlobe_HpuA with SLAM1 or SLAM2, labelled with biotinylated human transferrin
# T1 sequence (P02787 20-698 limits assumed): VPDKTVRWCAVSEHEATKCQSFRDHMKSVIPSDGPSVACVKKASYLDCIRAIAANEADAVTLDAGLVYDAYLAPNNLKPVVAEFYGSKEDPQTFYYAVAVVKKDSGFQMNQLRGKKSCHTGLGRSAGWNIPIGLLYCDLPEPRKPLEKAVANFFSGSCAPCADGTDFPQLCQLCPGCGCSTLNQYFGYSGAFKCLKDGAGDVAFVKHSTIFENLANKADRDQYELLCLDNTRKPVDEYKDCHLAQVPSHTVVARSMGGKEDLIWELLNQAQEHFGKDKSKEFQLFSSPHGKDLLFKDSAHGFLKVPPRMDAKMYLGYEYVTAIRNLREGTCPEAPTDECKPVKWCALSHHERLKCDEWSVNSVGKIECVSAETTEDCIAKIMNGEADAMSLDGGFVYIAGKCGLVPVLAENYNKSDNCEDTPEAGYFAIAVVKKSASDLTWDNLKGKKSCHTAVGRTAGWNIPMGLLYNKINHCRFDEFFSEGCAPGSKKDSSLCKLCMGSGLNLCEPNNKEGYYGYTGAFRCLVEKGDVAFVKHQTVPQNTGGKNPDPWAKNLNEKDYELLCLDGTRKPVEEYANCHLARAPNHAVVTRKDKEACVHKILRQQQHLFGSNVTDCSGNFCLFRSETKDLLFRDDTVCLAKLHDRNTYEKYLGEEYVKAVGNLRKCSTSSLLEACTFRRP
binder,measurement,value
B1,binding result,binds
